Measurements reported in publication PMC12122834.

Legend:
Test in all cases: EMSA
[1] = biological target: SSB (Escherichia coli, UniProt P0AGE0 2-178)
[2] = biological target: YoaA;chi (HolC);SSB (Escherichia coli;Escherichia …, UniProt P76257;P28905;P0AGE0 1-636;1-147;2-178, ||)
[3] = biological target: YoaA;chi R128A (HolC R128A) (Escherichia coli;Escherichia coli, UniProt P76257;P28905 1-636;1-147, |R128A)
[4] = biological target: T1, DinG (Escherichia coli, UniProt P27296 1-716)
T1 sequence: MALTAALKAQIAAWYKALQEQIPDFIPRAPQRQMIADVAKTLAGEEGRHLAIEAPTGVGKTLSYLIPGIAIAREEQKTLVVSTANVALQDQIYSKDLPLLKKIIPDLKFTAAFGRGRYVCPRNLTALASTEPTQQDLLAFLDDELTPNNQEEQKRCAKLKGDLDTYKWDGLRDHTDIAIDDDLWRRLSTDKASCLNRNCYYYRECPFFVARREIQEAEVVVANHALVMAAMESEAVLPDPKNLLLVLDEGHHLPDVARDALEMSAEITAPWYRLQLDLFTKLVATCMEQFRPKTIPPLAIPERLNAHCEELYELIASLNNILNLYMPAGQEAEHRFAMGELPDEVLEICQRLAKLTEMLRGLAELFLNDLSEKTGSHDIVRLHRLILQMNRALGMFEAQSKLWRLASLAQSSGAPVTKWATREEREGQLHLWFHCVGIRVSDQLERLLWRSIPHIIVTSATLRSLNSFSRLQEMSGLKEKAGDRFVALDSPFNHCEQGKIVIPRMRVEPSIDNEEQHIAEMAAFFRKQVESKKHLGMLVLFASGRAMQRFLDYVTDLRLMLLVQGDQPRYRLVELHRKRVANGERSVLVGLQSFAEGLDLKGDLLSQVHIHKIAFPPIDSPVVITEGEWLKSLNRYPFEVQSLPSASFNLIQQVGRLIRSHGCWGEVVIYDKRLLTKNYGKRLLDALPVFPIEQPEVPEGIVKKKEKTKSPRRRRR

[5] = biological target: YoaA;chi (HolC) (Escherichia coli;Escherichia coli, UniProt P76257;P28905 1-636;1-147, |)
[6] = biological target: DinG;SSB (Escherichia coli;Escherichia coli, UniProt P27296;P0AGE0 1-716;2-178, |)
[7] = biological target: SSB deltaC1 (Escherichia coli, UniProt P0AGE0 2-177, del178-178)

Measured: binding result

B1: ssT65 (S21) (ssDNA)
DNA: TTTTTTTTTTTTTTTTTTTTTTTTTTTTTTTTTTTTTTTTTTTTTTTTTTTTTTTTTTTTTTTTT
binds: all assays above
